Reference: US20230406951A1 (Pfizer, published 2023)
Numbering of substitutions follows the chain as printed. Numbers in names are those of the source. Blank lines part the entries; values can stand above or below the molecule they belong to.

How the values were obtained:
human TNFR2 (human) = human TNFR2 (human) (UniProt P20333); experiment: cell-based or functional assay
human TNFR2 [1] = biological target: T1, human TNFR2 (human, UniProt P20333 23-461); experiment: binding to human TNFR2 CHO cells
T1 construct: Human TNFR2 over-expressed on CHO cells, full length on transduced NF-KB-GFP Jurkat cells, or native on human primary T cells; also called Hu TNFR2; TNFRSF1B
T1 sequence: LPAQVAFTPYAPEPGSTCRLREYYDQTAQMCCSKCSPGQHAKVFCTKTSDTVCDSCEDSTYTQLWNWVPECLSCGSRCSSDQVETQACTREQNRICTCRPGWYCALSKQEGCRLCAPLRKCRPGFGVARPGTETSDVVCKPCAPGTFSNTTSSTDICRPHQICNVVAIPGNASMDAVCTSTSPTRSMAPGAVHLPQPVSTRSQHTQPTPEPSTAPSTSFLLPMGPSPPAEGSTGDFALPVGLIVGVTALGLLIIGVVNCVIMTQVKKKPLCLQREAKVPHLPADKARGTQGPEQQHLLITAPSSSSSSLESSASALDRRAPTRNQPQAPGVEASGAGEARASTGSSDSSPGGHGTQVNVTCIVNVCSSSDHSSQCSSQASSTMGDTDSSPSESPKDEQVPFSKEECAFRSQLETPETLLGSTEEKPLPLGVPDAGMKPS

biotinylated human TNFR2 = biological target: T2, biotinylated human TNFR2 (human, UniProt P20333 23-257, biotinylated); experiment: SPR (BIAcore), biotinylated TNFR2 captured on streptavidin chip, antibody as analyte (apparent affinity)
T2 construct: Soluble biotinylated protein captured on a streptavidin chip for SPR; also called HuTNFR2
T2 sequence: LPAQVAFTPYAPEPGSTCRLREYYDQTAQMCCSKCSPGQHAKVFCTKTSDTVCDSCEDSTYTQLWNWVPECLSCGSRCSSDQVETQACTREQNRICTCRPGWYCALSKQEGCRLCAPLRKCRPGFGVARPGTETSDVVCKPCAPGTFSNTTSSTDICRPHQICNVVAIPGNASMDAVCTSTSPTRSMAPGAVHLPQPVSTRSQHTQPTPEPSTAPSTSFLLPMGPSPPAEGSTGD
Description: (§1) Increased avidity was confirmed by Surface Plasmon Resonance (SPR) using a BIAcore. Briefly, biotinylated human- or cyno-TNFR2 was captured on the surface of a streptavidin chip for 60 seconds at a flow rate of […]. […] The dissociation phase was then initiated with running buffer (HBS-EP+) injected for 600 seconds at […]. Data were analyzed using the Biacore Evaluation Software.

biotinylated cyno TNFR2 = biological target: T3, biotinylated cyno TNFR2 (cynomolgus monkey, UniProt P20333 23-257 (human entry), limits assumed, biotinylated); experiment: as above
T3 construct: Soluble biotinylated protein captured on a streptavidin chip for SPR; also called CyTNFR2
T3 chain: T2 sequence with S16G, S36P, P117Q, N164H, E210A, S216G, M223V
Description: as §1

human TNFR2 [2] = biological target: T1, human TNFR2; experiment: cell-based or functional assay
cynomolgus monkey TNFR2 [3] = biological target: T4, cynomolgus monkey TNFR2 (cynomolgus monkey, UniProt P20333 23-461 (human entry)); experiment: cell-based or functional assay
T4 chain: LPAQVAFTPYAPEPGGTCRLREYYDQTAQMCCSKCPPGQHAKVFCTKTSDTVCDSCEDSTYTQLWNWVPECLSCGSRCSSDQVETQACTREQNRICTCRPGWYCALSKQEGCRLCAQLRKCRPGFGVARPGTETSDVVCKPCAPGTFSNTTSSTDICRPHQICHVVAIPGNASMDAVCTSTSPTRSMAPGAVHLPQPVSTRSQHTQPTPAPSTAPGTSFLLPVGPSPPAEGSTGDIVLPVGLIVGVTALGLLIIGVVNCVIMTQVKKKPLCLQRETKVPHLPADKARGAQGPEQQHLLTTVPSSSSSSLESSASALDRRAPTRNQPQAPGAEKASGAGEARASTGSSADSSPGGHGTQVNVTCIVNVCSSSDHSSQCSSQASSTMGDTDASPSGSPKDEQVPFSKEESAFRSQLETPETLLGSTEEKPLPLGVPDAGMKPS

human TNFR2 [4] = biological target: T1, human TNFR2; experiment: cell-based or functional assay; remark: listed apart in the source
cynomolgus monkey TNFR2 [5] = biological target: T4, cynomolgus monkey TNFR2; experiment: cell-based or functional assay
human TNFR2 [6] = biological target: T1, human TNFR2; experiment: cell-based or functional assay; remark: listed apart in the source
human TNFR2 [7] = biological target: T1, human TNFR2; experiment: binding to CHO cells over-expressing human TNFR2
human TNFR2 [8] = biological target: T5, human TNFR2 (human, UniProt P20333 23-461); experiment: binding to human TNFR2 CHO cells, TetraFab format
T5 construct: expressed on the surface of CHO cells; also called HuTNFR2; TNFRSF1B
T5 sequence: T1 sequence

- EC50 (human TNFR2 [1]): 1.13 nM
B3: clone 1773 (antibody, name in Kabat numbering, V domains shown)
VH: QVQLVQSGAEVKKPGASVKVSCKVSGFSFPSSGVDWVRQAPGQGLEWLGVTWGVGSTHYNQKFQGRVTITKDNSKSTVYMELSSLRSEDTAVYYCASGEWDEGFVYWGQGTLVTVSS
VL: DIQLTQSPSFLSASVGDRVTITCKASQNVGTAVAWYQQKPGKAPKLLIYAASTLQSGVPSRFSGSGSGTEFTLTISSLQPEDFATYYCQQYSSYPLTFGGGTKVEIK

- EC50 (human TNFR2 [1]): 1.19 nM
B4: clone 1766 (antibody, V domains shown)
VH: B3 VH with N73T
VL: B3 VL with A50S, T53N, L54R, Q55Y, S56T

- EC50 (human TNFR2 [7]): 0.0698 µg/mL
B5: clone 825 (antibody, V domains shown)
VH: QVQLKESGPGLVAPSQSLSITCTVSGFSFPSSGVDWVRQSPGKGLEWLGVTWGVGSTHYNSALKSRLSISKDNSKSQVFLKMNSLQTEDTAIYYCASGEWDEGFVYWGQGTLVTVSA
VL: DIVMTQSQKFMSTTVGDRVSITCKASQNVGTAVAWYQQKPGQSPKLLIYSASNRYTGVPDRFTGSGSGTDFTLTISNMQSEDLADYFCQQYSSYPLTFGGGTKLEIK
notes: human IgG1 (L234A, L235A, G237A, EU), kappa

- EC50 (human TNFR2 [8]): 2.3 nM
B8: TetraFab 2208 (antibody, human IgG1, kappa)
heavy: QVQLVQSGAEVKKPGASVKVSCKVSGFSFPSSGVDWVRQAPGQGLEWLGVTWGVGSTHYNQKFQGRVTITKDTSKSTVYMELSSLRSEDTAVYYCASGEWDEGFVYWGQGTLVTVSSASTKGPSVFPLAPSSKSTSGGTAALGCLVKDYFPEPVTVSWNSGALTSGVHTFPAVLQSSGLYSLSSVVTVPSSSLGTQTYICNVNHKPSNTKVDKKVEPKSCGGGGSQVQLVQSGAEVKKPGASVKVSCKVSGFSFPSSGVDWVRQAPGQGLEWLGVTWGVGSTHYNQKFQGRVTITKDTSKSTVYMELSSLRSEDTAVYYCASGEWDEGFVYWGQGTLVTVSSASTKGPSVFPLAPSSKSTSGGTAALGCLVKDYFPEPVTVSWNSGALTSGVHTFPAVLQSSGLYSLSSVVTVPSSSLGTQTYICNVNHKPSNTKVDKKVEPKSCDKTHTCPPCPAPEAAGAPSVFLFPPKPKDTLMISRTPEVTCVVVDVSHEDPEVKFNWYVDGVEVHNAKTKPREEQYNSTYRVVSVLTVLHQDWLNGKEYKCKVSNKALPAPIEKTISKAKGQPREPQVYTLPPSREEMTKNQVSLTCLVKGFYPSDIAVEWESNGQPENNYKTTPPVLDSDGSFFLYSKLTVDKSRWQQGNVFSCSVMHEALHNHYTQKSLSLSPGK
light: DIQLTQSPSFLSASVGDRVTITCKASQNVGTAVAWYQQKPGKAPKLLIYAASTLQSGVPSRFSGSGSGTEFTLTISSLQPEDFATYYCLQKSSYPLTFGGGTKVEIKRTVAAPSVFIFPPSDEQLKSGVTASVVCLLNNFYPREAKVQWKVDNALQSGNSQESVTEQDSKDSTYSLSSTLTLSKADYEKHKVYACEVTHQGLSSPVTKSFNRGEC
notes: TetraFab; parental heavy chain

The remaining lines, values behind:

Molecule: MR2-1 (Hycult Biotech, ref #HM2007) (antibody)
- EC50 Jurkat assay, With aggregates (human TNFR2 (human)): 0.12 µg/mL
- EC50 Jurkat assay, Without aggregates (human TNFR2 (human)): 5.75 µg/mL
- Loss of potency (without against with aggregates) (human TNFR2 (human)): 50 fold

B1: GBT-TNFR2-1765 (antibody, human IgG2, kappa, V domains shown)
VH: B3 VH with N73T
VL: DIQLTQSPSFLSASVGDRVTITCKASQNVGTAVAWYQQKPGKAPKLLIYAASTLQSGVPSRFSGSGSGTEFTLTISSLQPEDFATYYCQQYSSYPLTFGGGTKVEIKR
- EC50 (human TNFR2 [1]): 1.21 nM
- Kd (biotinylated human TNFR2): 0.32 nM
- koff (biotinylated human TNFR2): 0.00136 s⁻¹
- kon (biotinylated human TNFR2): 4.2e+06 M⁻¹ s⁻¹
- Kd (biotinylated cyno TNFR2): 2.39 nM
- koff (biotinylated cyno TNFR2): 0.00977 s⁻¹
- kon (biotinylated cyno TNFR2): 4.09e+06 M⁻¹ s⁻¹
- EC50 (HuPBMC) (human TNFR2 [2]): 1.31 nM
- Jurkat EC50 (human TNFR2 [2]): 1.01 µg/mL
- EC50 (CyPBMC) (cynomolgus monkey TNFR2 [3]): 13.6 nM
- EC50 HuPBMC (ICAM-1 up-regulation) (human TNFR2 [4]): 1.31 µg/mL
- EC50 CyPBMC (CD25+/Ki67+ of CD4+ cells) (cynomolgus monkey TNFR2 [5]): 13.6 µg/mL
- EC50 Jurkat (human TNFR2 [6]): 1.01 µg/mL

B2: clone 1774 (antibody, V domains shown)
VH: B3 VH
VL: B3 VL with A50S, T53N, L54R, Q55Y, S56T
- EC50 (human TNFR2 [1]): 1.56 nM

B6: TetraFab 2209 (antibody, human IgG1, kappa)
heavy: B8 heavy
light: B8 light with K91Y
notes: as for B8
- EC50 (human TNFR2 [8]): 0.15 nM

B7: TetraFab 2053 (antibody, human IgG1, kappa)
heavy: B8 heavy
light: B8 light with L89Q, K91Y
notes: dual Fab heavy chain (outer VH-CH1, G4S linker, inner VH-CH1, human IgG1 Fc) pairing with 4 light chains; also called TF2053
- EC50 (human TNFR2 [8]): 0.7 nM
